According to patent US20250009876A1 (H LUNDBECK A S, published 2025):

T1: PAC1-R on PAC1-R-expressing PC-12 cells (UniProt P32215 20-523)
T1 construct: whole, on cells; also called PAC1 receptor
T1 sequence (looked up): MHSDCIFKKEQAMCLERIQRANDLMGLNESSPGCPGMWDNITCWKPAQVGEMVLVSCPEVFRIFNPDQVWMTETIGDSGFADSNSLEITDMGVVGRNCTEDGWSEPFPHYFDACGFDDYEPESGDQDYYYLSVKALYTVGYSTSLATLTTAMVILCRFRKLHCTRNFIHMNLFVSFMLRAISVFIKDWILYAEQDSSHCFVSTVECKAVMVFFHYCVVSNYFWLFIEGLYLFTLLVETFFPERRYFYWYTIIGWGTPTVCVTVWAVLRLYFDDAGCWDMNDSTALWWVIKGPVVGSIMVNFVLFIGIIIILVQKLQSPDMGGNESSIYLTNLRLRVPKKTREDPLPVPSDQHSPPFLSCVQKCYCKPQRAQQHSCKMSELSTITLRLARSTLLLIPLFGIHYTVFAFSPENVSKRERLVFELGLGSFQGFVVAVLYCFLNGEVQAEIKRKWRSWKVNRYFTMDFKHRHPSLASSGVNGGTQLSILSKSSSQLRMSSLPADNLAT

T2: PACAP27 (Pituitary Adenylate Cyclase-Activating Polypeptide, 27 amino acids) (human, the C-terminal leucine is amidated)
T2 construct: also called human PACAP27
T2 peptide: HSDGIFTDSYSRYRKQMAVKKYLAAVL

T3: PACAP38 (Pituitary Adenylate Cyclase-Activating Polypeptide, 38 amino acids) (human, not fully specified; the C-terminal lysine is amidated)
T3 peptide: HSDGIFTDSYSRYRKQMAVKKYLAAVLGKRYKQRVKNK

T4: VIP (Vasoactive Intestinal Peptide) (human)
T4 construct: also called human VIP
T4 peptide: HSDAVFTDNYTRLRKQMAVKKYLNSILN

B1: Ab22 (antibody, human IgG1, kappa, N297A, V domains shown)
VH: QEQLVESGGGLVQPEGSLTLTCTASGFDFSSNAMCWVRQAPGKGLEWIGSIYNADGKNYYAIWAKGRFTISRTSSTTVTLQMTSLTAADTATYFCARDFDLWGQGTLVTVSS
VL: AAVLTQTPSPVSAAVGGTVTINCQSSQSVYDNDWLAWFQQKPGQPPKLLIYLTSTLASGVPSRFSGSGSGTQFTLTISGVQCDDAATYYCLGGYDEDGDTHVFGGGTEVVVKR
notes: Full-length anti-PACAP antibody; rabbit/human chimeric
B2: Ab21.H2 (antibody, human IgG1, kappa, N297A)
heavy: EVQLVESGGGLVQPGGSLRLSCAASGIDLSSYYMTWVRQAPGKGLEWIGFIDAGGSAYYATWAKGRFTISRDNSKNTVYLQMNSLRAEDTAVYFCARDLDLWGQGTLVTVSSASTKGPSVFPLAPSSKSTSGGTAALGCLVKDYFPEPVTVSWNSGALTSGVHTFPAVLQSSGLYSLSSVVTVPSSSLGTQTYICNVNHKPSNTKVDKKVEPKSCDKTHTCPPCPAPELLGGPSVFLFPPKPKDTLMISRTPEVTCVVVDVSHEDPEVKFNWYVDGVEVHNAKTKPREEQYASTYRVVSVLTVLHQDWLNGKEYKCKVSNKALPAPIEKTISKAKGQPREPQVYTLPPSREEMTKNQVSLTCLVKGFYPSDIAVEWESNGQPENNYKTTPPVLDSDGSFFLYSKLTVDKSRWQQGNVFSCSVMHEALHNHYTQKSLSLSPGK
light: AVLTQSPSTLSASVGDRVTITCKSSESVYGDYLAWFQQKPGKAPKQLIYDASTLASGVPSRFSGSGSGTEFTLTISSLQPDDFATYYCAGGYVSAGVAFGGGTKVEIKRTVAAPSVFIFPPSDEQLKSGTASVVCLLNNFYPREAKVQWKVDNALQSGNSQESVTEQDSKDSTYSLSSTLTLSKADYEKHKVYACEVTHQGLSSPVTKSFNRGEC
notes: Full-length humanized variant of Ab21

Columns and labels:
[1] = molecular target: T1, PAC1-R on PAC1-R-expressing PC-12 cells; assay: cell surface binding assay (DELFIA TRF): antibody pre-incubated with PACAP38, added to PAC1-R-expressing PC-12 cells, detected with Eu anti-human IgG
Experimental: Cells were initially seeded at 1×10⁵ cells/well in a solution of complete RPMI (“cRPMI”: RPMI medium supplemented with 10% sterile heat-inactivated FBS and 1% sterile antibiotic/antimycotic)+10% FBS, and the plates were allowed to incubate overnight at 37° C. On the day of the binding assay, antibodies at an initial concentration of 15 μg/ml were diluted at a 1:3 ratio in DELFIA® binding buffer (50 mM Tris, 150 mM NaCl, 0.1% azide, 2% horse serum) (Perkin-Elmer, Waltham, MA) to a total volume of 60 μL in a separate 96 well round bottom plate. PACAP38 was prepared for the binding assay by diluting it in DELFIA® binding buffer to a concentration of 200 nM, and then 60 μl of the diluted PACAP38 was added to each of the antibody-containing wells to form antibody: antigen complexes. Following addition of PACAP38, the antibody: antigen complexes were incubated at room temperature on a shaker for 1 hour. Separately, the PC-12 cells were prepared for addition of antibody: antigen complexes by washing the cells two times with DELFIA® wash buffer (50 mM Tris, 150 mM NaCl, 0.1% Azide) (Perkin-Elmer, Waltham, MA). After washing the cells two times and following the 1 hour room temperature incubation of the antibody: antigen complexes, 50 μl of the antibody: antigen complex was added to each well containing cells. The mixtures of cells and antibody: antigen complexes were then incubated for 30 minutes at room temperature. Following this 30 minute incubation, each mixture was washed two times with DELFIA® wash buffer (Perkin-Elmer, Waltham, MA).
DELFIA® Europium labeled anti-human IgG detection reagent (Cat #1244-330, Perkin-Elmer, Waltham, MA) was diluted to a concentration of 300 ng/ml in DELFIA® Binding Buffer. Following dilution, 50 μl of the anti-human IgG detection reagent was added to each well containing cells, and a 30 minute incubation at room temperature followed this addition of IgG detection reagent. After completion of the 30 minute room temperature incubation, the cells were then washed two times with DELFIA® wash buffer. Next, 50 μl of DELFIA® Enhancement Solution (Cat #1244-105, Perkin-Elmer, Waltham, MA) was added to each well containing cells for a final 15 minute room temperature incubation with shaking. The plates were then read (TRF, excitation 330 nm, emission 620 nm) on a SPECTRAMAX® (Molecular Devices, Sunnyvale, CA) plate reader.

[2] = molecular target: T2, PACAP27 (Pituitary Adenylate …); assay: competition HTRF binding assay: unlabeled PACAP27 at 10x against biotinylated PACAP38 (35 nM)
Experimental: In parallel, 10 μl of an antibody dilution series (highest final concentration of 100 nM) were incubated with 10 μl of N-terminal or C-terminal biotinylated PACAP38 (35 nM final) alone, or in combination with either PACAP27 (350 nM final) or VIP (350 nM final), i.e., 10× PACAP27 or 10× VIP, respectively, in a HTRF plate. 20 μl of Eu³⁺ cryptate labeled anti-hu Fc donor and 20 μl of d2-labeled streptavidin acceptor were added to each well and incubated for 1 hour at room temperature. Fluorescence was measured at 620 and 665 nm with a delay of 300 usec.

[3] = molecular target: T3, PACAP38 (Pituitary Adenylate …); assay: cell-based or functional assay
[4] = molecular target: T2, PACAP27 (Pituitary Adenylate …); assay: cell-based or functional assay
[5] = molecular target: T3, PACAP38 (Pituitary Adenylate …); assay: cell-based or functional assay
[6] = molecular target: T3, PACAP38 (Pituitary Adenylate …); assay: cell-based or functional assay
[7] = molecular target: T3, PACAP38 (Pituitary Adenylate …); assay: cell surface binding assay (DELFIA TRF): antibody pre-incubated with PACAP38, added to PAC1-R-expressing PC-12 cells, detected with Eu anti-human IgG; the antibody is held on the cells through cell-bound PACAP38
Experimental: Cells were initially seeded at 1×10⁵ cells/well in a solution of complete RPMI (“cRPMI”: RPMI medium supplemented with 10% sterile heat-inactivated FBS and 1% sterile antibiotic/antimycotic)+10% FBS, and the plates were allowed to incubate overnight at 37° C. On the day of the binding assay, antibodies at an initial concentration of 15 μg/ml were diluted at a 1:3 ratio in DELFIA® binding buffer (50 mM Tris, 150 mM NaCl, 0.1% azide, 2% horse serum) (Perkin-Elmer, Waltham, MA) to a total volume of 60 μL in a separate 96 well round bottom plate. PACAP38 was prepared for the binding assay by diluting it in DELFIA® binding buffer to a concentration of 200 nM, and then 60 μl of the diluted PACAP38 was added to each of the antibody-containing wells to form antibody: antigen complexes. Following addition of PACAP38, the antibody: antigen complexes were incubated at room temperature on a shaker for 1 hour. […]
DELFIA® Europium labeled anti-human IgG detection reagent (Cat #1244-330, Perkin-Elmer, Waltham, MA) was diluted to a concentration of 300 ng/ml in DELFIA® Binding Buffer. […] The plates were then read (TRF, excitation 330 nm, emission 620 nm) on a SPECTRAMAX® (Molecular Devices, Sunnyvale, CA) plate reader.

[8] = molecular target: T4, VIP (Vasoactive Intestinal Peptide); assay: SPR (ProteOn XPR36), antibody amine-coupled, peptide analyte, 1:1 Langmuir fit
[9] = molecular target: T3, PACAP38 (Pituitary Adenylate …); assay: as above
Experimental: (§1) Binding affinities of monoclonal antibodies for human PACAP were estimated using SPR on the PROTEON™ XPR36 (Bio-Rad, Hercules, CA). Antibody was immobilized to the surface of general amine coupling (“GLC″ or “GLM”) Chips (Bio-Rad, Hercules, CA). […] Antigen (ranging from 1.23 nM to 100 nM) was typically run sequentially with association times of 2-4 minutes and dissociation times of 3-120 minutes grouped with the PROTEON™ Manager Software (v3.1.0.6 (Bio-Rad, Hercules, CA)) and fitted using a 1:1 Langmuir binding model. Surfaces were regenerated between analyte queries using 0.85% Phosphoric Acid, 0.5% SDS, and 0.1N NaOH.

[10] = molecular target: T2, PACAP27 (Pituitary Adenylate …); assay: as above
Experimental: as §1

Binder | binding result [1] | binding result [2] | Inhibition of 0.1 nM PACAP38-induced PAC1-R mediated cAMP increase IC50 (pM) [3] [pM] | Inhibition of 1 nM PACAP27-induced PAC1-R mediated cAMP increase IC50 (pM) [4] [pM] | Inhibition of 1 nM PACAP38-induced human VPAC2-R mediated cAMP increase IC50 (pM) [5] [pM] | Inhibition of 5 nM PACAP38-induced human VPAC1-R mediated cAMP increase IC50 (pM) [6] [pM] | EC50 (read off the curve) [7] [nM] | Kd [8] [nM] | koff [8] [s⁻¹] | kon [8] [M⁻¹ s⁻¹] | Kd [9] [nM] | koff [9] [s⁻¹] | kon [9] [M⁻¹ s⁻¹] | Kd [10] [nM] | koff [10] [s⁻¹] | kon [10] [M⁻¹ s⁻¹]
B1 | no binding (tested: about 70 nM) | no binding | – | – | – | – | – | – | – | – | – | – | – | – | – | –
B2 | – | – | 28.5 | 274 | 1060 | 2480 | ~7 | 225 | 0.011 | 48800 | ≤ 0.0171 | ≤ 1e-05 | 586000 | ≤ 0.0233 | ≤ 1e-05 | 430000
